Results published in patent US20220403428A1.

Biological target: PcPsiH, Psilocybe cubensis tryptamine 4-monooxygenase (cytochrome P450 enzyme) (Psilocybe cubensis) (UniProt P0DPA7)
Test: cell-based or functional assay

Row | psilocin titer [mg/L] | psilocybin titer [mg/L] | extracellular accumulation of tryptamine [mg/L] | Substance
1 | 135 | 117 |  | PcCpr, putative Psilocybe cubensis cytochrome P450 reductase (enzyme)
2 |  |  | 90 | native S. cerevisiae cytochrome P450 reductase (Ncp1) (from UniProt P16603 2-691) (enzyme)
